The values below come from publication PMC10069731 (Communications Biology, 2023).

In assay [1] the target is SARS-CoV-2 Omicron BA.4/5 RBD (SARS-CoV-2 Omicron BA.4/5, strain). The assay is described as follows: BLI. Conditions: both partners purified.
Assay [2] deals with SARS-CoV-2 WT spike ECD, 6P-stabilized (SARS-CoV-2, WT (ancestral), UniProt P0DTC2, stabilised). The assay is described as follows: ELISA. The following applies: both partners purified. Background: ELISA stands for enzyme-linked immunosorbent assay.

A word on the Kd: it is the constant that tells how readily two partners part at equilibrium. Low values mean higher affinity, high ones lower affinity.

B1: rabbit monoclonal antibody (RmAb) 1H1, IgG (antibody, V domains shown)
VH: QSLEESGGDLVKPGASLTLTCTASGFSFSSGYDMCWVRQAPGKGLEWIACIGTGSSGNIYYASWAKGRFTISKTSSTTVTLQMTSLTAADTATYFCARDDADYAGPDYFNLWGPGTLVTVSS
VL: DIVMTQTPASVSEPVGGTVTIKCQASESISNWLAWYQQKPGQPPKLLIYAAFTLASGVPSRFKGSGSGTQFTLTINGVECADAATYYCQQTYSSRDVDNVFGGGTEVVVK
As to B1, the affinity in assay [1], expressed as Kd, was 1.33 nM. Further, the binding result in assay [2] is listed as “binds”.
